No end group written: not given here.

The target in assay [1] is CD40 on Rhesus macaque peripheral blood mononuclear cells / B cells (Rhesus macaque, UniProt F6SNI1 21-278). Nature of the assay: cell-based or functional assay.
In assay [2] the target is T1, FLAG-tagged rhsCD40 (Alexis) (human, UniProt P25942 21-193, limits assumed).
T1 construct: Bought reagent (Alexis); also called recombinant human CD40; human CD40; not shown: FLAG tag
The assay can be described thus: ELISA, peptide and FLAG-tagged rhsCD40 (1 ug/ml), detected with HRP anti-FLAG antibody, TMB, OD 450 nm. The procedure:
Binding of the identified peptides to CD40 was analyzed by ELISA. Briefly, plates were coated with […] and then incubated with identified peptides and detected using Flag-tagged rhsCD40.
In order to confirm the specificity of the peptides to interfere with CD40:CD154 interaction, the specificity of peptides 1-7 as listed in table 1 to bind to human […] by ELISA was tested. Briefly, 96 well ELISA (Nunc Immunolon) plates were coated with the peptides in carbonate buffer. The wells are washed and probed with FLAG-tagged rhsCD40 (1 μg/ml; Alexis) and developed with HRP conjugated rabbit anti-FLAG antibody. The plates were washed and the enzymatic activity was determined using 3,3′,5,5′-tetramethyl-benzidine substrate for 15 minutes and the reaction was stopped by the addition of 2 M H2SO4, and optical density was measured at 450 nm, with the correction wavelength set at 620 nm.
A general note: In an ELISA, binding on a coated surface is turned into a signal by an enzyme label.

T1 sequence (P25942 21-193 limits assumed): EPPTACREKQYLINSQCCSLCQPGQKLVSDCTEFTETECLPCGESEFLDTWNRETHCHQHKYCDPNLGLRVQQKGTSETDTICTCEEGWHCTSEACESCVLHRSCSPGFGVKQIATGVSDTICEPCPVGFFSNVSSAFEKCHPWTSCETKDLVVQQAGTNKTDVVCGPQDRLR

B1: Peptide 1 (control CD40-binding peptide) (peptide)
peptide: VLQWAEKGYYTMSNN
modifications: also: also used fluorescently labelled (dye and position not given here), called cyclic, no cyclisation chemistry given
notes: also called control Peptide 1
As to B1, the “MHC class II expression on B cells after activation with recombinant hCD40L, peptide at 30 µM” value (from here on “MHC class II expression on B cells”) in assay [1] stood at 50 % reduction. In assay [2], the binding result is “binds”.

B2: Peptide 2 (peptide)
peptide: VLQWAERGFYTTSNN
modifications: also: also made with a fluorescent label, dye and site not given here
Regarding B2, the “MHC class II expression on B cells” value in assay [1] is 50 % reduction. In addition, the binding result in assay [2] is recorded as “binds”.

B3: Peptide 7 (peptide)
peptide: VVQWAEKGYYTMSQN
modifications: also: also made with a fluorescent label, dye and site not given here
With B3, the “MHC class II expression on B cells” value in assay [1] turned out to be 50 % reduction. The binding result in assay [2] is “binds”.

B4: Peptide 6 (peptide)
peptide: LLQWAERGYFMTSNN
modifications: also: also made with a fluorescent label, dye and site not given here
For B4, the “MHC class II expression on B cells” value in assay [1] was 50 % reduction. The binding result in assay [2] is given as “binds”.

B5: Peptide 3 (peptide)
peptide: VVQWAEKGFFTMSNN
modifications: also: also made with a fluorescent label, dye and site not given here
For B5, the “MHC class II expression on B cells” value in assay [1] came out at 50 % reduction. The binding result in assay [2] is recorded as “binds”.

B6: Peptide 4 (peptide)
peptide: VLNWADKAYFTMSQN
modifications: also: also made with a fluorescent label, dye and site not given here
With B6, the “MHC class II expression on B cells” value in assay [1] turned out to be 50 % reduction. In addition, the binding result in assay [2] is “binds”.

B7: Peptide 5 (peptide)
peptide: LVNWADKAFYTTSNN
modifications: also: also made with a fluorescent label, dye and site not given here
For B7, the “MHC class II expression on B cells” value in assay [1] turned out to be 50 % reduction. Also, the binding result in assay [2] is “binds”.
